Test results published in a protein production outcome set (Wang et al. 2014).

Assay: label from the status in PepcDB records
In the case of “MARVTVMIPTQRRPDGLAVAARSVFGQVGVDFAELELVIVDNDQVPSAKPVADALRKGAPCPVIYVNEKRPGVAFARNAGMARASGDFIAFLDDDEEAPSGWLAALLAAQERYDADVVFGPVKARAPAHIDQHRDYLERFFSRIGPAQAGVIDYHYGCGDSLIRRSALPDPVAPFAVERNFIGGEDDLLFGHMGAAGKRFAWEPAAWVWEDPVPSRLNLGYTIQRAFAYGQGPSAHCAAAEPRDNLGVARWMLIGVGQAAVFGLVAAVKWAVRAKDRAEWLDRAARGLGKTFWWGPFKIQFYGRTA”, the protein production is reported as “failed”. For “MASADEKVVEEKASVISSLLDKAKGFFAEKLANIPTPEATVDDVDFKGVTRDGVDYHAKVSVKNPYSQSIPICQISYILKSATRTIASGTIPDPGSLVGSGTTVLDVPVKVAYSIAVSLMKDMCTDWDIDYQLDIGLTFDIPVVGDITIPVSTQGEIKLPSLRDFF”, the protein production was “not failed”. With “MASIQKLGNGWRYRVSYKDAGKYKTKTKGGFRTKKECELAAAELEKKLHVGMDISAGDRLFAEYMRTWFELYQNGKHSPEHDRNIERSVKLVEEHFPGVKMKELTREMYQKFINEISPKYATDTVKKRHTYIKACLQEAIQEGIIFKDPTYKVIIKGKKDTKNEELKYLNFNEVQKLVAETKKDLRPRYISRYVILFAIATGARFSEIMGITWDCVDFKNRTITINKTWDFKDTNDFSDTKNYASKRTITIDTETVDMLQTLKSEQNKKALQTGLRNKKNLVFVNTKMQLVSNNAVNKTLRTLCKAAKIKEITCHGLRHTHASMLLYKGVNIKYISRRLGHKDIVTTLQTYSHILDEMEQVESRVVDDTMKEIHGAKFVQKNF” the protein production was “failed”. With “MASKSGSGGLREPPNEQAVLNMYEGKRSELSQIYSNITDLEMQVSEHSLVINAIQPLDQSRKCFRMIGGVLVERTIKEVLPAVQRNKDGLEEVVRKLYETLEKKKKDLTEFEAKYKIRITKQEDNKEGGNKKEGNAQGVLVGAASSSQ” the protein production was “failed”. With “MASLAAVVRALLRRESQRATGYALREWTMLTARHLPYLQGQLTLGRIAAVGHLQRSTLGRSEWHTSSAPLFGEGRGRWHWGLSTSDVVDGSDHEHHSTETGGRELPSFKTGELGSDVDGDRAALEAWLAQIRDETSGWPELSLDALRDELDEELEGDDDDNDDDDDETYENEELLKALQEAVNRHRTPVVALVSGRVVHLRRTAAPKRSPRAGRVPRNEPQTTSRDTTKADANDNECT” the protein production was “not failed”. In the case of “MASLIMTTPFPGSVTACKKTNNLSVQRAFKVTCMQTEKPLEELYNVKVERKVSQKRLEELGVSRWSVWKTGKCKLPWDWQVDQLVYIEQGEVRVVPEGSKRYMQFLAGDLVRYPKWLEADLFFNAPYIERYCFKAYGDD”, the protein production is reported as “failed”. With “MASSAVSLQSISMTTLNNLSCNQQFHRSSLLGSSKSFQNLGISSNGSDFSYPSSFTAKKNLTASRALSQNGNIENPRPSKVQELSVYEINELDRHSPKILKNAFSLMFGLGDLVPFTNKLYTGDLKKRVGITAGLCVVIEHVPEKKGERFEATYSFYFGDYGHLSVQGPYLTYEDSFLAITGGAGIFEGAYGQVKLQQLVYPTKLFYTFYLKGLANDLPLELTGTPVPPSKDIEPAPEAKALEPSGVISNYTN” the protein production was “not failed”. For “MASSKQADPQTDARPLPQDFETALAELESLVSAMENGTLPLEQSLSAYRRGVELARVCQDRLAQAEQQVKVLEGDLLRPLDPAALDDE”, the protein production was “not failed”. For “MASSVILREDGFAPPKPSPTTHEKASTKGDRDGVECKNSDSEEECLVKKTVAAHTDYIYTQDLNLSP”, the protein production was “failed”. In the case of “MASTNQELASALRMFSRFFDLIHQPLAVINERGEYVYYNQESADLDGYSIERAMGKHMLDVYPGMKETQSTMLSSLKKGVEYIGHYQIYYNARGQAVDYQHTTAPLYASDGGMVGVIEIGRNMSGVRRLQEQVVELNQLLYADHHEKHHAIITENPEMLSNIAKAKRLAASNIPVTIVGETGTGKELFSRLIHQCSKRANKPFIALNCGALPPTLIESTLFGTVRGAYTGAENSQGYLELANGGTLFLDELNAMPIEMQSKLLRFLQDKTFWRLGGQQQLHSDVRIVAAMNEAPVKLIQQERLRADLFYRLSVGMLTLPPLRARPEDIPLLANYFIDKYRNDVPQDIHGLSETARADLLNHAWPGNVRMLENAIVRSMIMQEKDGLLKHIIFEQDELNLGVPETAPENPLPSSPDPQYEGSLEVRVANYERHLIETALDTHQGNIAAAARSLNVSRTTLQYKVQKYAIRFGVVRN”, the protein production is reported as “failed”. With “MASWLVLCRFVHFAVVLTLVGAWVFRPLLLGRDSAQSGHGAVHRQLDRLSRWLTLIGLGSGLCWLLLITASMAGSWSAALDPATVQLVLGKTFFGQVWTWHLLLNLLLLGLLLTPLGRRLPLQLGLGALLLATLAPVGHGAMLDGLAGQLLILNQVVHLSCVGIWLGGLLVLLLVLRQPPQASVEPLLRRFSGVGYGLVAGLLASGLINVRVLTGQWWPTPLFSGFALILLIKVLLVAGMLALALFNRLRIRGCDQRLASLRNSVQLEWLLGVAAVAAVSLLGTLPPMQVI” the protein production was “failed”. For “MASYAELFDIGEDFAAFVGHGLATEQGAVARFRQKLESNGLPSALTERLQRIERRYRLLVAGEMWCPDCQINLAALDFAQRLQPNIELAIISKGRAEDDLRQRLALERIAIPLVLVLDEEFNLLGRFVERPQAVLDGGPQALAAYKAGDYLEHAIGDVLAIIEGAAR”, the protein production was “not failed”. With “MATAFSSLRARLFALLLLALLLLLAPLAWLSAREAERAASEDLRRALYTRLYLLQAEGVQDEERLLLELFRLAQLFGGGVGFVLREGEARFTQLGDWPLPPGLPAALAAEGVYQGVFRGTLYVVLAQGGLAYGLAVPLEGVSGLGQRLLARYALWGGGLLLGVFLLAALALSWTLRPLRDLEKALRARAPEDLSPLPDPGLAELRPVVAALNALFARVGRLLAELAEKEEAARRFARHASHELRTPLTALKGYLEVLRRKNEPRALEGALREAGRMEALLAGLLRLSRLEALPPQRVPLDLRAFLEAQGLEVQGEGRVLADPELLALAVENVLENARRHGRLPVRAELSREGEGVWVWLVDAGPGFPEDLLPRVLEPFVHGGKGTGLGLALVAAVARAHGGRVRVENRGGAGVGLYLPLAPLKVSPGVPFGEGG” the protein production was “not failed”. With “MATAGSSYSVSTDHQVSSPLVNLGNVAGVCIMSNAWKVEQEPSLINFISAFLSANSFRLNFVSIPPDLIFNCGGVSIAFVFVTKWDFSNVASIFSRVKRLKGQFAQLYVVATLSTKEQSDSFMRSYFQYEMEFGKPAFVQVTDAEMGFEKIVKIAHSRGVCKQQKVASKLKVERKRTVQDTNIFIRFVTSIPNINKHDANTVMFTYEQVQVLYQAIGSIEAIAKASKEDILANTDLSSKKADTLTRFFQDPEFYLSPKFN” the protein production was “failed”. In the case of “MATATATSERFELAKHCSSRNWSKAIRVLDSLLAKESSILDICNRAFCYNQLELHKHVIKDCDKALLLEPFAIQAFILKGRALLALGRKQEAVLVLEQGYKSALQQTADVKQLLELEELLKDARREIDGILKSHATESPQETPAYHSEKSDEKSDKLDNHESGASSNGNSHESSSELGEQSKIVSFSKVASKASKQSDGNSDLCNGSVYKEKENGKCGSQINGYYESCKPCNGSDLHDNLAESSDRFGELSINGNKISIKSSKMSHKAEARCGISDESRKNKKYTIARISGTHSISVDFRLSRGIAQVNEGNYTKAISIFDKVLKEEPTYPEALIGRGTAYAFQRELESAIADFTKAIQSNPAASEAWKRRGQARAALGEYVEAVEDLTKALVFEPNSPDVLHERGIVNFKSKDFTAAVKDLSICLKQEKDNKSAYTYLGLAFASLGEYKKAEEAHLKSIQLDSNYLEAWLHLAQFYQELADHCKALECIEQVLQVDNRVWKAYHLRGLVFHGLGEHRKAIQELSIGLSIENTIECLYLRGSCYHAVGEYRDAVKDYDATVDVELDAVEKFVLQCLAFYQKELALYTASKVSSEFLCFDIDGDIDPMFKEYWCKRLHPKNVCEKVYRQPPLRESLKKGKLKKQDLAITKQKANILRFADLIGKRIQYDCPGFLPNKRQHRMAGLAVIEIAQKVSKAWRIEWRNSTKGTTKNGKKNRRRERTNILSQNRGGAGCSSSSFSETSTGYASLEDRSSGRSILSWQDVYSPAVRWRQISEPCDPVVWVNKLSEEFNSGFGSHTPMVLGQAKVVRYFPNYERTLTLAKSIIKDKLSVRSKKDKVIDLSKDEKIEKIMRAETCDELHNIVGEDFWVATWCDSTGSEGWVC”, the protein production is reported as “failed”. With “MATDTTVQLRAGWQGRFYEDFAVGDVYKHPYGRTVTETDNVWFTNLTMNANPMHFNAAYASGTEFDERLVNGLFVIALSVGMSVVDVSANATANLGYDDIQHHAPVFHGDTLFAESEVLSKRESESRPHVGMVTTELRTYTQDGELVLSLERTPMVRKRGAADPLEHHHHHH” the protein production was “failed”. In the case of “MATEATTKFPESDLRPIPQPPDFHPAIIVPAQNTTLKFWQLMVAGSIAGSVEHMAMFPVDTVKTHMQALRSCPIKPIGIRQAFRSIIKTDGPSALYRGIWAMGLGAGPAHAVYFSFYEVSKKFLSGGNPNNSAAHAISGVFATISSDAVFTPMDMVKQRLQIGNGTYKGVWDCIKRVTREEGFGAFYASYRTTVLMNAPFTAVHFTTYEAVKRGLREMLPEHAVGAEDEEGWLIYATAGAAAGGLAAAVTTPLDVVKTQLQCQGVCGCDRFKSSSISDVFRTIVKKDGYRGLARGWLPRMLFHAPAAAICWSTYETVKSFFQDLNGEANAA”, the protein production is reported as “failed”. In the case of “MATEIGSPPRFFHMPRFQHQAPRQLFYKRPDFAQQQAMQQLTFDGKRMRKAVNRKTIDYNPSVIKYLENRIWQRDQRDMRAIQPDAGYYNDLVPPIGMLNNPMNAVTTKFVRTSTNKVKCPVFVVRWTPEGRRLVTGASSGEFTLWNGLTFNFETILQAHDSPVRAMTWSHNDMWMLTADHGGYVKYWQSNMNNVKMFQAHKEAIREASFSPTDNKFATCSDDGTVRIWDFLRCHEERILRDTCFHHCRCYFLSVKR”, the protein production is reported as “failed”. With “MATEKLPPLERYIRMLELLTAFPDGLALSELSAMIELPKASAHRLIKTLQELELAATSSPGSATYVTGPRLRKLAFMSADAQWVVAILRPFLRELTQEMGETAFVARLEGASVRTIAFEAPETPWRGFILPGYEMHPNAAASAKAILAFQDAATLKRALREPFERLTPQTNLSKERLLEEYAAIRQSGVATCIGEIDEGLAAVAVPIEVGGAAGLYSLGLTGPMNRVMALGVERAAERMMAYAARMASGLSAGLSAESARAAGLS” the protein production was “failed”. In the case of “MATGKISKRSIDALRPNASNQFLWDTDLKGFGAKITPAGAISYVLQFRMGGREASTRRYTIGAHGSPWTPTTARAEAERLLLLIGQGVDPVDADKQRRREAVDLAFANYAERFARSCKGDGWRRLVERAIRLYLTPVLGKKALPAINRTDVVSVFDNMPADQVANRRNVFAVLRRLFRWAVSRGDLDRSPMEGMETPPPVKARERWLSDDELRLIWNAAPECHRCFGPIVRLLIATGQRREEVSGMRWSELSRTDKLWTLPGDRTKNGEPNTIPLNDLAVAELDAAAGGDKWPRKGRVFATSTGAGFTGYAKGKDKLDRLIELAEGEPLPPWRLHDLRRTLATNFQRLGVRFEVTEAVLNHVGGSRSGVAGIYQRHDWKEEKRQALDDWNSHLEQILMRPSPGNRQAASQAAADLDK”, the protein production is reported as “failed”. In the case of “MATGNTLLAVYRSRIGEPTTDDEAYGYWLFVIGIVLGIVGLLLFYLTASRSTPRQFGYLLGAIGLISLFAGPTIRLPLTRRGLILTYLGAVVGLVAMVWFTTFYPSNWTGPEGNPAVTLYIVGLGLMAVGAVVSPLLTGRKEAYDKAVQTAEDATEVAEQATQEADRASREATQQSQTADRATRERNRLAEQLATSEAAREELATVTEASEAELAAAHATIAAAMDSKATFELYEDAGGKYRWRLRHRNANVIADSAQGYSSRQKAMQGLRSVQSNAAGGAVVFFEDATEDDTAEDVPVVPAPESDATFELFEDSAGEFRWRLRHDNGNILADSGEGYASKSNVRRALQSVRAHVPGAAYLRVDPVAYEVYADAAGEFRWRLLHRNGNILADSGEGYSSRSNARRAARRVSELAPDSAVDDRFEVYEDAAEEWRWRLRADNGELIADSGEGYANRSKAMDAVERVQSYAADADLLAIGSAAFEVYEDKGEEWRWRLRHRNGKIIADSGEGYAERNKAVAAIERIKRHAPGATQEE”, the protein production is reported as “failed”.
